Results taken from patent publication US20050028229A1 (published 2005).

Key:
[1] = target: T1, purified human α-hemoglobin (human, UniProt P69905 2-142, heme-bound; carboxy (CO) form in interaction studies, oxy form in stability studies); assay: method not stated; told as 'discussed previously'
T1 construct: Holo-protein with heme; also called CO-α-hemoglobin; carboxy (CO)-α-hemoglobin

[2] = target: T1, purified human α-hemoglobin; assay: gel filtration at various concentrations of AHSP and α-hemoglobin (data not shown)
[3] = target: T2, purified human β-hemoglobin (human, UniProt P68871 2-147, heme-bound; carboxy (CO) form in interaction studies, oxy form in stability studies); assay: gel-filtration chromatography of equimolar mixtures
T2 construct: also called CO-β-hemoglobin; oxy-β-hemoglobin
T2 sequence (P68871 2-147 limits assumed): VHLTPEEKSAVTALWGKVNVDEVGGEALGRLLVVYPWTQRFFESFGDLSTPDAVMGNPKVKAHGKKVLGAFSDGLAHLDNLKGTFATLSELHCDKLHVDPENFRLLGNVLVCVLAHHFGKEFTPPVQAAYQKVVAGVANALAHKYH

T1 sequence (P69905 2-142 limits assumed): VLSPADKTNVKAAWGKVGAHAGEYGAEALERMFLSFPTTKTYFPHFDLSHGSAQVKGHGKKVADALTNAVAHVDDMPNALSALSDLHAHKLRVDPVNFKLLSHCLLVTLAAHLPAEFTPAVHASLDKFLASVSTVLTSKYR

B1: recombinant human AHSP (Alpha Hemoglobin Stabilizing Protein) (other, UniProt Q9NZD4 1-102, looked up)
chain: MALLKANKDLISAGLKEFSVLLNQQVFNDPLVSEEDMVTVVEDWMNFYINYYRQQVTGEPQERDKALQELRQELNTLANPFLAKYRDFLKSHELPSHPPPSS
notes: species not restated there; also called EDRF; Erythroid Differentiation Related Factor
**Q.** With B1 as the binder, how does the Kd [1] read?
**A.** ~100 nM

**Q.** What about the Kd [2] of the same binder?
**A.** ≤ 500 nM

**Q.** Does B1 bind [3]?
**A.** no binding
